Experimental data taken from patent publication CN117088975A.

Molecular target: ALB蛋白(天然提取)
Test: AMC sensor, antibody immobilised at 10 ug/ml, ALB in gradient dilution in PBST

对照 (antibody)
Kd: 32.4 nM | koff: 0.000483 s⁻¹ | kon: 14900 M⁻¹ s⁻¹
